Consider one molecule from patent publication US20220112249A1 (OXFORD UNIVERSITY INNOVATION, published 2022).

The test has as its target T1, fHbp V1.1 with PorA VR2 P1.16 loop in position 5 (P5) (Neisseria meningitidis, UniProt E6MV22 20-274).
T1 sequence: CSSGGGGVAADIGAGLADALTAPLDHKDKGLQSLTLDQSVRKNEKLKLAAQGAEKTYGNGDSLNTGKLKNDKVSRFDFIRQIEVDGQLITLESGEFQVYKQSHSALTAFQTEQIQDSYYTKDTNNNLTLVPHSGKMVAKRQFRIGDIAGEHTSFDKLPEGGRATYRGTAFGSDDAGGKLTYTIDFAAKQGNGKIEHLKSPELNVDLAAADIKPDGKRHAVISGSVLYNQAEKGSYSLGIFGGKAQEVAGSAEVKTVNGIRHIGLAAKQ
Put plainly: SPR (BIAcore), fHbp:PorA coupled to the chip, CFH (fH67) flowed over.

B1: Complement Factor H (CFH) domains 6 and 7 (other)
chain: TLKPCDYPDIKHGGLYHENMRRPYFPVAVGKYYSYYCDEHFETPSGSYWDHIHCTQDGWSPAVPCLRKCYFPYLENGYNQNYGRKFVQGKSIDVACHPGYALPKAQTTVTCMENGWSPTPRCI
notes: domain: fH67 (CFH domains 6-7); also called fH67
Consider B1, for which the binding result is “no binding (tested: 0.5-32 nM)”.
